Data on 3 molecules can be found in patent publication US20230295258A1 (KANAPH THERAPEUTICS, published 2023).

For this test, the target named is IL-12 receptor of human T cells (human, UniProt P42701 24-662; Q99665 24-862). Nature of the test: cell-based or functional assay.
Sequence of IL-12 receptor of human T cells (Q99665 24-862, chain 2 of 2, other chains not shown): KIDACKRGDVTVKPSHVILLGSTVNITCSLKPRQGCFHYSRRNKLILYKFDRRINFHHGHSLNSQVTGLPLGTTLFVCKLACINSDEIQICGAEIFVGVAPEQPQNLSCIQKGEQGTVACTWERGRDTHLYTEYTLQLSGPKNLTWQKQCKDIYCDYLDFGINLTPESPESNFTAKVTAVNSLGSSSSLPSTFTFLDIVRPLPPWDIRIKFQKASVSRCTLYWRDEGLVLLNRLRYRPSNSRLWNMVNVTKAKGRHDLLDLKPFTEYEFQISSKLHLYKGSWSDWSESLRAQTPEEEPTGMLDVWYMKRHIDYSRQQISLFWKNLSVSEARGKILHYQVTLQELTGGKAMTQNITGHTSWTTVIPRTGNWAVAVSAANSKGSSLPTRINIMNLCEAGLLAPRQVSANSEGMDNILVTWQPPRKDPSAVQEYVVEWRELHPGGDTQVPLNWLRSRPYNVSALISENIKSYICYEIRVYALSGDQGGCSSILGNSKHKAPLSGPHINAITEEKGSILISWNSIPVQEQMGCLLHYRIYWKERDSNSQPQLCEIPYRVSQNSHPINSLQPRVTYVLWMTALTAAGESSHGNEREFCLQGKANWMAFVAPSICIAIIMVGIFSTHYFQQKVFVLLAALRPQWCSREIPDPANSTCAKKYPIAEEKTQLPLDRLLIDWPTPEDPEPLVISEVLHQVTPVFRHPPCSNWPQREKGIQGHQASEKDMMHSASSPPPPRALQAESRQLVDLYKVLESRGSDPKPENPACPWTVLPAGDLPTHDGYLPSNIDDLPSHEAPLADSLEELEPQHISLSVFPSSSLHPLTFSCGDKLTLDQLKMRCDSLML

B1: T1.02 (anti-hu FAP/hu IL-12 mut1, hu IgG1 DANG) (bispecific antibody)
heavy: QVQLVQSGAEVKKPGASVKVSCKTSRYTFTEYTIHWVRQAPGQRLEWIGGINPNNGIPNYNQKFKGRVTITVDTSASTAYMELSSLRSEDTAVYYCARRRIAYGYDEGHAMDYWGQGTLVTVSSASTKGPSVFPLAPSSKSTSGGTAALGCLVKDYFPEPVTVSWNSGALTSGVHTFPAVLQSSGLYSLSSVVTVPSSSLGTQTYICNVNHKPSNTKVDKKVEPKSCDKTHTCPPCPAPELLGGPSVFLFPPKPKDTLMISRTPEVTCVVVAVSHEDPEVKFNWYVDGVEVHNAKTKPREEQYGSTYRVVSVLTVLHQDWLNGKEYKCKVSNKALPAPIEKTISKAKGQPREPQVYTLPPSRDELTKNQVSLWCLVKGFYPSDIAVEWESNGQPENNYKTTPPVLDSDGSFFLYSKLTVDKSRWQQGNVFSCSVMHEALHNHYTQKSLSLSPGK
light: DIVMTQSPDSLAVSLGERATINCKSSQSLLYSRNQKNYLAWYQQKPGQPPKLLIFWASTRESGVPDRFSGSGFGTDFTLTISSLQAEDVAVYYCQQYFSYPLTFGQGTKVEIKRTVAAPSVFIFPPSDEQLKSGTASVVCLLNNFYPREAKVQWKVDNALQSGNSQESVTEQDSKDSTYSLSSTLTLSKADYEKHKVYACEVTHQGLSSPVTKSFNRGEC
chain: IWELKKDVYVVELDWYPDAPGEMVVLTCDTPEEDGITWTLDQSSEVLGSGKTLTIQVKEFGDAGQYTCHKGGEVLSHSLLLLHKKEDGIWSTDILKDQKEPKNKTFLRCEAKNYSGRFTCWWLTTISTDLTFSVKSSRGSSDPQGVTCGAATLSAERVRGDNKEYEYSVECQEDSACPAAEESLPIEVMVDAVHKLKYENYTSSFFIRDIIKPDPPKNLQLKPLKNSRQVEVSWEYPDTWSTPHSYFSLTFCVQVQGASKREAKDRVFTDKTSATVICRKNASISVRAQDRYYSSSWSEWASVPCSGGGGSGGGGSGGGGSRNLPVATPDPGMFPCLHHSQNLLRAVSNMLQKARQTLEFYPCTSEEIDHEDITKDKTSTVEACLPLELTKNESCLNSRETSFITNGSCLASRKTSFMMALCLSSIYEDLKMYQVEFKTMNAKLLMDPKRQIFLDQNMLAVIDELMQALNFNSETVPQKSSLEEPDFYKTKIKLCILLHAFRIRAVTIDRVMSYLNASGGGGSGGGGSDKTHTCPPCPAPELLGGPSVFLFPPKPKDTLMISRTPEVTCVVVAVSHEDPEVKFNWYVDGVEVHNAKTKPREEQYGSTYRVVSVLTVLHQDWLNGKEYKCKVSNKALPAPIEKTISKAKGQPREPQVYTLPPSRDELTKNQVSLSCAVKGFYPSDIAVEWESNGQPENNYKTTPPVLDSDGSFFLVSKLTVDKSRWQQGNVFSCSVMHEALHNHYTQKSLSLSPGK
As for B1, the “change of the p-STAT4 EC50 in human T cells with low molecular weight heparin against without” value (from here on “change of the p-STAT4 EC50 … against without”) came out at 5.5 times and the “half maximal effective concentration (EC50) of p-STAT4 (Tyr693) in activated human T cells, AlphaLISA” value worked out at 56.5 pM.

B2: T1.01 (anti-hu FAP/hu IL-12, hu IgG1 DANG) (bispecific antibody)
heavy: B1 heavy
light: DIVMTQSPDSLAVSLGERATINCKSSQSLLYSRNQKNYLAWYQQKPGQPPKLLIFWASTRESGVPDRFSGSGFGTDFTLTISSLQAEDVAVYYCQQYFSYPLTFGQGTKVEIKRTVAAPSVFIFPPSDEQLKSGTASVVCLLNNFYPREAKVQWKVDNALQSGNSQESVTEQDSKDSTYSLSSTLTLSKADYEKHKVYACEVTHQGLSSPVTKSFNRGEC
chain: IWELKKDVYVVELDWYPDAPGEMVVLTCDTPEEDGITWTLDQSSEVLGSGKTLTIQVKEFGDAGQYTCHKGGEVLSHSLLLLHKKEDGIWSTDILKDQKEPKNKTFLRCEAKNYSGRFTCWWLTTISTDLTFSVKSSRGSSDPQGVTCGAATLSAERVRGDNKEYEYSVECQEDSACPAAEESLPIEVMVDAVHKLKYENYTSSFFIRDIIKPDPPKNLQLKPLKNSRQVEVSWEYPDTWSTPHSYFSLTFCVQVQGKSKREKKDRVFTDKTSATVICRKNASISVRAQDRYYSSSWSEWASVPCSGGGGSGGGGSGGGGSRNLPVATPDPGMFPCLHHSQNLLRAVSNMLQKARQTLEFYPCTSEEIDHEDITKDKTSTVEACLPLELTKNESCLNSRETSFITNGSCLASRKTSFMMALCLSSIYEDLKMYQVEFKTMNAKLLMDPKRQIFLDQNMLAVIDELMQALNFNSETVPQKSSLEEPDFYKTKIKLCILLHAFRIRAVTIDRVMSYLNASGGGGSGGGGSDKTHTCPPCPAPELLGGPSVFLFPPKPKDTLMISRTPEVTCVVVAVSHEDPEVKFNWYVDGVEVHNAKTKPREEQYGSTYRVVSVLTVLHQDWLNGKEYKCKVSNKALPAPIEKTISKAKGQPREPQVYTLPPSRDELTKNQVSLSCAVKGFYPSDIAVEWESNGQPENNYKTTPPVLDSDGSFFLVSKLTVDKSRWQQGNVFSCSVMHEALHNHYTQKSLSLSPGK
For B2, the “change of the p-STAT4 EC50 … against without” value was determined as 9.4 times and the “half maximal effective concentration (EC50) of p-STAT4 (Tyr693) in activated human T cells, AlphaLISA” value was 14.5 pM.

B3: T1.03 (anti-hu FAP/hu IL-12 mut2, hu IgG1 DANG) (bispecific antibody)
heavy: B1 heavy
light: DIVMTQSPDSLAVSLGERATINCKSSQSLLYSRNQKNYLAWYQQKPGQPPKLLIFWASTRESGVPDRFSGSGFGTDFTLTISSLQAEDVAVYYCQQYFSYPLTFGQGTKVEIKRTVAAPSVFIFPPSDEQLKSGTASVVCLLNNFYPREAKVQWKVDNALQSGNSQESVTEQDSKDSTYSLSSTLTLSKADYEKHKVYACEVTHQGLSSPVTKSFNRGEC
chain: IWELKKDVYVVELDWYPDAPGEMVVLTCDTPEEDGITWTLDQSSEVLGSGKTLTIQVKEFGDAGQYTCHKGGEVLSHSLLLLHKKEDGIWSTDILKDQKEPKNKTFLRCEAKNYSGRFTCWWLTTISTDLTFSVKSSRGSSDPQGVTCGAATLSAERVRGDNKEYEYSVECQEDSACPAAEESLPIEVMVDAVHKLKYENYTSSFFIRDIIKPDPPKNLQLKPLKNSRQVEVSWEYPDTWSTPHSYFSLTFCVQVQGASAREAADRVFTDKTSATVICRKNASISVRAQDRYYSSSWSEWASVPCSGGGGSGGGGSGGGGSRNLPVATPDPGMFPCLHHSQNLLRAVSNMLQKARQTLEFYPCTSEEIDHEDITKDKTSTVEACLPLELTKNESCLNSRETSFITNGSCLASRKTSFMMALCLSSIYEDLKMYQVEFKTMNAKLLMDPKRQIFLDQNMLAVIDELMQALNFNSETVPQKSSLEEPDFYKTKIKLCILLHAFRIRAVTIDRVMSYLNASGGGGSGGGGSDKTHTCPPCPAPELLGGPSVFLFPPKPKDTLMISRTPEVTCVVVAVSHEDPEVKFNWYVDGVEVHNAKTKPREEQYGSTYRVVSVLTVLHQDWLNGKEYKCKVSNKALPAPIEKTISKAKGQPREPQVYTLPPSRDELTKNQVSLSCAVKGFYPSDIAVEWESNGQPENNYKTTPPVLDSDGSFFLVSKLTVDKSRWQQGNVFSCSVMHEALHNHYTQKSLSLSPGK
With B3, the “change of the p-STAT4 EC50 … against without” value amounted to 4 times and the “half maximal effective concentration (EC50) of p-STAT4 (Tyr693) in activated human T cells, AlphaLISA” value turned out to be 147 pM.
